The source of these data is patent publication US20180155451A1 (published 2018).

The chains are these.
T1: FcγRIIa H (FcγRIIa, type H allotype, His at position 131), extracellular domain with C-terminal His tag (human, UniProt P12318 34-217)
T1 construct: extracellular domain; Soluble receptor expressed in FreeStyle293 cells; analyte in Biacore; also called FcgRIIa H; 2aH; not shown: C-terminal His tag
T1 sequence (looked up): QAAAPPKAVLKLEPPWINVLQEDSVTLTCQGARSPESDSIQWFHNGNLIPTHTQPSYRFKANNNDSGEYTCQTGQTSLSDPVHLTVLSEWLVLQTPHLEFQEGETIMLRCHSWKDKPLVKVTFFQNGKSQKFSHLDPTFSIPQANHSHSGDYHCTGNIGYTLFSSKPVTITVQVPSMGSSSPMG

T2: FcγRIIb, extracellular domain with C-terminal His tag (human, UniProt P31994 43-217)
T2 construct: extracellular domain; Soluble receptor expressed in FreeStyle293 cells; analyte in Biacore; also called FcgRIIb; 2b; not shown: C-terminal His tag
T2 sequence (looked up): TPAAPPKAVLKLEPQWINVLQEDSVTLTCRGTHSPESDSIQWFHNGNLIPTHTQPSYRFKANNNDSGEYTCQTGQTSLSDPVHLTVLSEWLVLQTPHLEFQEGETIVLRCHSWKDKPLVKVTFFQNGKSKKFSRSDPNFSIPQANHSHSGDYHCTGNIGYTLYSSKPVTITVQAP

T3: FcγRIIb, extracellular domain with C-terminal His tag (human, UniProt P31994 43-217)
T3 construct: extracellular domain; soluble receptor used as Biacore analyte; also called 2b; FcgRIIb
T3 sequence (looked up): T2 sequence (looked up)

T4: FcγRIIb (human, UniProt P31994 43-217)
T4 construct: extracellular domain; Soluble extracellular domain with C-terminal His tag, used as analyte in Biacore; also called FcgRIIb; 2b; not shown: His tag attached to the C terminus
T4 sequence (looked up): T2 sequence (looked up)

B1: GpH7-A5/GpH7-B3 variant Y300_07I/GpL16-k0 (antibody, human IgG1, kappa)
heavy 1: not shown
heavy 2: not shown
light: DIVMTQSPLSLPVTPGEPASISCQASESLVHSNRNTYLHWYLQKPGQSPQLLIYKVSNRFSGVPDRFSGSGSGTDFTLKISRVEAEDVGVYYCSQNTHVPPTFGQGTKVEIERTVAAPSVFIFPPSDEQLKSGTASVVCLLNNFYPREAKVQWKVDNALQSGNSQESVTEQDSKDSTYSLSSTLTLSKADYEKHKVYACEVTHQGLSSPVTKSFNRGEC
notes: Heterodimerized IgG1; mutation only in the GpH7-B3 chain; also called He Ab
B2: GpH7-A5/GpH7-B3 variant Y300_11K/GpL16-k0 (antibody, human IgG1, kappa)
heavy 1: not shown
heavy 2: not shown
light: B1 light
notes: as for B1
B3: GpH7-A5/GpH7-B3 variant Y300_08L/GpL16-k0 (antibody, human IgG1, kappa)
heavy 1: not shown
heavy 2: not shown
light: B1 light
notes: as for B1
B4: heterodimerized antibody GpH7-A5/GpH7-B3 variant V266_05P/GpL16-k0 (antibody, human IgG1, kappa)
heavy 1: not shown
heavy 2: not shown
light: B1 light
notes: He Ab: anti-glypican-3 IgG1, alteration in one H chain only; also called He Ab
B5: heterodimerized antibody GpH7-A5/GpH7-B3 variant V266_11K/GpL16-k0 (antibody, human IgG1, kappa)
heavy 1: not shown
heavy 2: not shown
light: B1 light
notes: as for B4
B6: heterodimerized antibody GpH7-A5/GpH7-B3 variant S267_12R/GpL16-k0 (antibody, human IgG1, kappa)
heavy 1: not shown
heavy 2: not shown
light: B1 light
notes: as for B4
B7: heterodimerized antibody GpH7-A5/GpH7-B3 variant S267_11K/GpL16-k0 (antibody, human IgG1, kappa)
heavy 1: not shown
heavy 2: not shown
light: B1 light
notes: as for B4
B8: GpH7-A5/GpH7-B3 variant A327_12R/GpL16-k0 (antibody, human IgG1, kappa)
heavy 1: not shown
heavy 2: not shown
light: B1 light
notes: position is EU numbering; also called He Ab
B9: GpH7-A5/GpH7-B3 variant L328_12R/GpL16-k0 (antibody, human IgG1, kappa)
heavy 1: not shown
heavy 2: not shown
light: B1 light
notes: as for B8
B10: GpH7-A5/GpH7-B3 variant L328_11K/GpL16-k0 (antibody, human IgG1, kappa)
heavy 1: not shown
heavy 2: not shown
light: B1 light
notes: as for B8
B11: GpH7-A5/GpH7-B3 variant P238_20W/GpL16-k0 (antibody, human IgG1, kappa)
heavy 1: not shown
heavy 2: not shown
light: B1 light
notes: Heterodimerized IgG1; mutation in the GpH7-B3 H chain only; also called He Ab
B12: GpH7-A5/GpH7-B3 variant S239_07I/GpL16-k0 (antibody, human IgG1, kappa)
heavy 1: not shown
heavy 2: not shown
light: B1 light
notes: as for B11
B13: GpH7-A5/GpH7-B3 variant P238_19Q/GpL16-k0 (antibody, human IgG1, kappa)
heavy 1: not shown
heavy 2: not shown
light: B1 light
notes: as for B11
B14: GpH7-A5/GpH7-B3 variant G236_10E/GpL16-k0 (antibody, human IgG1, kappa)
heavy 1: not shown
heavy 2: not shown
light: B1 light
notes: as for B11
B15: GpH7-A5/GpH7-B3 variant S239_03V/GpL16-k0 (antibody, human IgG1, kappa)
heavy 1: not shown
heavy 2: not shown
light: B1 light
notes: as for B11
B16: GpH7-A5/GpH7-B3 variant L235_04F/GpL16-k0 (antibody, human IgG1, kappa)
heavy 1: not shown
heavy 2: not shown
light: B1 light
notes: as for B11
B17: GpH7-A5/GpH7-B3 variant N325_04F/GpL16-k0 (antibody, human IgG1, kappa)
heavy 1: not shown
heavy 2: not shown
light: B1 light
notes: as for B11
B18: GpH7-A5/GpH7-B3 variant N325_01G/GpL16-k0 (antibody, human IgG1, kappa)
heavy 1: not shown
heavy 2: not shown
light: B1 light
notes: as for B11
B19: GpH7-A5/GpH7-B3 variant A327_01G/GpL16-k0 (antibody, human IgG1, kappa)
heavy 1: not shown
heavy 2: not shown
light: B1 light
notes: as for B11
B20: GpH7-A5/GpH7-B3 variant N325_03V/GpL16-k0 (antibody, human IgG1, kappa)
heavy 1: not shown
heavy 2: not shown
light: B1 light
notes: as for B11
B21: GpH7-A5/GpH7-B3 variant N325_08L/GpL16-k0 (antibody, human IgG1, kappa)
heavy 1: not shown
heavy 2: not shown
light: B1 light
notes: as for B11
B22: GpH7-A5/GpH7-B3 variant S239_05P/GpL16-k0 (antibody, human IgG1, kappa)
heavy 1: not shown
heavy 2: not shown
light: B1 light
notes: as for B11
B23: GpH7-A5/GpH7-B3 variant N325_06M/GpL16-k0 (antibody, human IgG1, kappa)
heavy 1: not shown
heavy 2: not shown
light: B1 light
notes: as for B11
B24: GpH7-A5/GpH7-B3 variant G237_13S/GpL16-k0 (antibody, human IgG1, kappa)
heavy 1: not shown
heavy 2: not shown
light: B1 light
notes: as for B11
B25: GpH7-A5/GpH7-B3 variant P238_16H/GpL16-k0 (antibody, human IgG1, kappa)
heavy 1: not shown
heavy 2: not shown
light: B1 light
notes: as for B11
B26: GpH7-A5/GpH7-B3 variant L234_20W/GpL16-k0 (antibody, human IgG1, kappa)
heavy 1: not shown
heavy 2: not shown
light: B1 light
notes: as for B11
B27: GpH7-A5/GpH7-B3 variant N325_07I/GpL16-k0 (antibody, human IgG1, kappa)
heavy 1: not shown
heavy 2: not shown
light: B1 light
notes: as for B11
B28: GpH7-A5/GpH7-B3 variant S239_06M/GpL16-k0 (antibody, human IgG1, kappa)
heavy 1: not shown
heavy 2: not shown
light: B1 light
notes: as for B11

T6 sequence (P12314 16-292): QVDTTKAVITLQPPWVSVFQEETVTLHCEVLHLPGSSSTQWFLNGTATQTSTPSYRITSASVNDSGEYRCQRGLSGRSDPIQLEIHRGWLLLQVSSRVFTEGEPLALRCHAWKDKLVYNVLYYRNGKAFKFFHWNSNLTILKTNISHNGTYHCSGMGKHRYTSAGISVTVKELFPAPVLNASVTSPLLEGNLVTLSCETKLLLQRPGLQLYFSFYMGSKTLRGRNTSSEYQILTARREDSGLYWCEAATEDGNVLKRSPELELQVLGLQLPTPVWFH

In the first experiment the target is T1, FcγRIIa H (FcγRIIa, type H allotype, …). Put plainly: SPR (Biacore), captured antibody, FcγR as analyte. In general terms: Surface plasmon resonance follows binding to a sensor surface in real time, without labels.
In the case of B1, the He/Con_2aH was 108 relative, GpH7-A5/GpH7-B3/GpL16-k0 = 100. The same measure, in the same setting: next, B2: 66.9 relative, GpH7-A5/GpH7-B3/GpL16-k0 = 100; B3: 108 relative, GpH7-A5/GpH7-B3/GpL16-k0 = 100.

Another experiment has as its target T2, FcγRIIb, extracellular domain with …. The experiment in a line: SPR (Biacore), captured antibody, FcγR as analyte.
Regarding B1, the He/Con_2b was 74.5 relative, GpH7-A5/GpH7-B3/GpL16-k0 = 100. Still for that read-out and setting: next, B2: 51.6 relative, GpH7-A5/GpH7-B3/GpL16-k0 = 100; B3: 73.6 relative, GpH7-A5/GpH7-B3/GpL16-k0 = 100.

The target of another experiment is T1, FcγRIIa H (FcγRIIa, type H allotype, …). The experiment in a line: ratio of He/Con_2aH to He/Con_2b (FcγRIIa H over FcγRIIb), SPR.
Regarding B1, the “He_2aH/2b (IIaH/IIb)” value turned out to be 1.45. The same measure, in the same setting: the value for B2 was 1.3; that for B3 was 1.47.

A further experiment has as its target T3, FcγRIIb, extracellular domain with …. The experiment in a line: Biacore SPR; binding relative to GpH7-A5/GpH7-B3/GpL16-k0 (=100). The protocol: (§1) The heterodimerized antibodies He Abs in which one of the H chains was introduced with an alteration were assayed for their binding activities to each activating FcγR and inhibitory FcγR according to the method described in Example 4. […] The activating FcγRs in FIGS. 26, 27, 28, and 29 are FcγRIa, FcγRIIa (R), FcγRIIa (H), and FcγRIIIa, respectively.
(§2) Analysis of interaction between objective antibody and the FcγR was carried out using Biacore T100 (GE Healthcare). HBS-EP+ (GE Healthcare) was used as the running buffer, and the measurement temperature was set to 25° C. Chips produced by immobilizing the antigen peptide by the amine coupling method to a Series S Sencor Chip CM5 (GE Healthcare), or alternatively, chips produced by allowing preliminarily biotinylated antigen peptides to interact with and immobilize onto a Series S Sensor Chip SA (certified) (GE Healthcare) were used. Antibodies of interest were captured onto an antigen peptide-immobilized chip, and allowed to interact to each FcγR diluted with running buffer. To regenerate and repeatedly use the chip, the antibodies captured on the chip were washed off by reacting 10 mM glycine-HCl, pH 1.5.
In the case of B4, the “He/Con_2b (IIb binding)” value was 0.4 % of control.

On to B5, for which the “He/Con_2b (IIb binding)” value is 1 % of control. As for B6, the “He/Con_2b (IIb binding)” value is 11.3 % of control. The same measure, in the same setting: next, B7: 12.2 % of control.

The target in a further experiment is T5, FcγRIIIa extracellular domain with C-terminal His tag (human, UniProt P08637 17-208).
T5 construct: extracellular domain; also called FcgRIIIa; 3a; not shown: His tag at the C terminus
T5 sequence (P08637 17-208): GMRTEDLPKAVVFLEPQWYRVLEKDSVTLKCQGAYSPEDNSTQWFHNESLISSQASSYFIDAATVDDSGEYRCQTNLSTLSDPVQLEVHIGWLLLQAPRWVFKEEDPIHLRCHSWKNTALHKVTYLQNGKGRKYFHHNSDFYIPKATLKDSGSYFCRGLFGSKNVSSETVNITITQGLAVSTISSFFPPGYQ
Put plainly: SPR (Biacore); ratio of He/Con_3a (FcγRIIIa) to He/Con_2b (FcγRIIb). As for the experimental part: as §1, §2
Take B8: the “He_3a/2b (IIIa/IIb)” value worked out at 2.15 ratio. On the same count and under the same terms, the value for B9 was 3.53 ratio. Still for that read-out and setting: the value for B10 was 4.46 ratio.

A further experiment concerns the target T5, FcγRIIIa extracellular domain with …. The experiment in a line: SPR (Biacore), antibody captured, FcγR as analyte; He Ab binding / GpH7-A5/GpH7-B3/GpL16-k0 binding x 100. The protocol: as §1, §2
With B8, the “He/Con_3a (IIIa binding)” value is 19.3 relative, control = 100. For B9, the “He/Con_3a (IIIa binding)” value was 32.7 relative, control = 100. Same read-out and setting: next, B10: 33.5 relative, control = 100.

A further experiment has as its target T6, FcγRIa (human, UniProt P12314 16-292).
T6 construct: extracellular domain; Soluble extracellular domain with C-terminal His tag, used as analyte in Biacore; also called FcgRI; 1a; not shown: His tag attached to the C terminus
The experiment in a line: SPR (Biacore), antibody captured on antigen peptide, FcγR as analyte; relative to GpH7-A5/GpH7-B3/GpL16-k0 = 100.
For B11, the He/Con_1a is 99.9 % of control. For the molecule B12, the He/Con_1a was 97.8 % of control. Regarding B13, the He/Con_1a was 97.6 % of control.

As to B14, the He/Con_1a is 93.7 % of control. On the same count and under the same terms, next, B15: 95.9 % of control; B16: 97.1 % of control; B17: 93.2 % of control. In the case of B18, the He/Con_1a was 97.1 % of control. The same measure, in the same setting: the value for B19 was 99 % of control; that for B20 was 95.6 % of control; that for B21 was 97.5 % of control. The same measure, in the same setting: next, B22: 85.3 % of control. The same measure, in the same setting: next, B23: 97.6 % of control; B24: 92.2 % of control; B25: 96 % of control. B26: the He/Con_1a is 98.6 % of control. Same read-out and setting: the value for B27 was 94.8 % of control. With B28, the He/Con_1a was 99 % of control.

In another experiment the target is T4, FcγRIIb. The experiment is described as above.
On to B11, for which the He/Con_2b was 123 % of control. With B12, the He/Con_2b is 107 % of control.

For the molecule B13, the He/Con_2b was 110 % of control. The same measure, in the same setting: the value for B14 was 110 % of control; that for B15 was 108 % of control.

B16: the He/Con_2b was 118 % of control.

With B17, the He/Con_2b is 143 % of control. On the same count and under the same terms, the value for B18 was 101 % of control.

Consider B19, for which the He/Con_2b is 116 % of control.

Regarding B20, the He/Con_2b is 111 % of control. The same measure, in the same setting: next, B21: 197 % of control; B22: 102 % of control.

B23: the He/Con_2b is 217 % of control.

Regarding B24, the He/Con_2b was 111 % of control.

In the case of B25, the He/Con_2b was 115 % of control.

For the molecule B26, the He/Con_2b is 114 % of control. Turning to B27, the He/Con_2b is 171 % of control.

Take B28: the He/Con_2b is 101 % of control.
